This note sets out measurements from paper doi:10.1101/2023.02.07.527441.

In this assay the target is PmScsC-EcDsbA chimera (Proteus mirabilis | E. coli) (UniProt P0AEG4). The assay can be described thus: AUC.

With “PmScsC-EcDsbA chimera (from UniProt P0AEG4 20-208) (enzyme)”, the stoichiometry N (usually a count of units in the complex or per binding partner) turned out to be 3.
